{
  "source": "patent US5550213",
  "biological_target": "Urokinase plasminogen activator (Homo sapiens (Human)) (UniProt P00749)",
  "assay": "inhibition of UK activity; Ki by non-linear regression (Enzfitter) of free enzyme versus inhibitor concentration",
  "data": [
    {"substance": "mutant with arginine at the P1 site of OM3TKY (designed binder)", "values": [
      {"measurement": "Ki", "value": 1790, "unit": "nM"}
    ]}
  ]
}
